{"source": "paper PMC3815026", "origin": "cited, not measured here", "key": {"C1q (Homo sapiens)": {"molecular_target": "C1q (Homo sapiens) (UniProt P02745)", "sequence (P02745 23-245, chain 1 of 3)": "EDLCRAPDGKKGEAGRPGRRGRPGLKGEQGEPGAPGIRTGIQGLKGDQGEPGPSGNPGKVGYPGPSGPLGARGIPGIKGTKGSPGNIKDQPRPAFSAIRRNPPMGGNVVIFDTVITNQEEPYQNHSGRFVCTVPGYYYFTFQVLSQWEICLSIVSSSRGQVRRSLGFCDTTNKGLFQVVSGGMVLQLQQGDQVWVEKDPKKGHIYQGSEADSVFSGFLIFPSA", "sequence (P02746 28-253, chain 2 of 3, further chain)": "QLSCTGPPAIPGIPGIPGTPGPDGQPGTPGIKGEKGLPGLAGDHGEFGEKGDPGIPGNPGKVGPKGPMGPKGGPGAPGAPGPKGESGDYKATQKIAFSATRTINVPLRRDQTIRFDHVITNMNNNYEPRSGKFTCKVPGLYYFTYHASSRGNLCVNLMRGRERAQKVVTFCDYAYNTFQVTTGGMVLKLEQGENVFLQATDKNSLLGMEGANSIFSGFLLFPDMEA", "sequence (P02747 29-245, chain 3 of 3, further chain)": "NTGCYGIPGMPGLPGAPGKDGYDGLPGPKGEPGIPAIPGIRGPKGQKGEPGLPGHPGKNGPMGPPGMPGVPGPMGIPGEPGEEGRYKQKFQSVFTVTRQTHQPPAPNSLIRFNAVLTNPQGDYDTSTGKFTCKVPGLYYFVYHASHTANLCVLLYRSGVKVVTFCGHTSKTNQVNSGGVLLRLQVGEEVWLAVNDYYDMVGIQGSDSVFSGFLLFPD", "experiment": "Scatchard"}, "MBL (Homo sapiens)": {"molecular_target": "MBL (Homo sapiens) (UniProt P11226)", "sequence (P11226 21-248)": "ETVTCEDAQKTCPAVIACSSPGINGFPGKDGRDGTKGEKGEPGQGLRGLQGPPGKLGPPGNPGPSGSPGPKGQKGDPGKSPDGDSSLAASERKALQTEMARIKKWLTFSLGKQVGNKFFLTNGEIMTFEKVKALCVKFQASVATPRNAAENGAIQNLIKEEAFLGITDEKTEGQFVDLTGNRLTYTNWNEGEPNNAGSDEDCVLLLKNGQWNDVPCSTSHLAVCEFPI", "experiment": "Scatchard"}}}
{"substance": "serglycin (myeloma cell-derived) (from UniProt P10124)", "values": [{"measurement": "Kd", "setting": "C1q (Homo sapiens)", "result": 40, "unit": "nM"}, {"measurement": "Kd", "setting": "MBL (Homo sapiens)", "result": 19, "unit": "nM"}]}
